From the supplement of paper PMC9112550, “Optimization of the antimicrobial peptide Bac7 by deep mutational scanning” (BMC Biology, 2022)

Test system: Escherichia coli TOP10
Experiment: shrunken log2 fold change of peptide-encoding DNA abundance (4.5 h post-induction vs induction); higher = less antimicrobial activity (less host growth inhibition)
Conditions: time post-induction: 4.5 h; library: site-saturation at positions 5, 18, 19, 20
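Further: peptides expressed intracellularly from a pBAD plasmid library in pooled LB shake-flask culture, induced with 0.3% L-arabinose, DNA abundance read by NGS, three biological replicates, DESeq2 with apeglm shrinkage.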

| Sequence | shrunken log2 fold change |
| --- | --- |
| RRIRCRPPRLPRPRPRPQFMPRP | -0.59 |
| RRIRKRPPRLPRPRPRPDNLPRP | -0.0561 |
| RRIRERPPRLPRPRPRPHSCPRP | 0.00997 |
| RRIRARPPRLPRPRPRPGAAPRP | 1.1 |
| RRIRGRPPRLPRPRPRPFYGPRP | -0.0443 |
| RRIRPRPPRLPRPRPRPGGTPRP | 0.269 |
| RRIRPRPPRLPRPRPRPDVQPRP | 0.234 |
| RRIRTRPPRLPRPRPRPQELPRP | 0.0724 |
| RRIRLRPPRLPRPRPRPARVPRP | 0.329 |
| RRIRDRPPRLPRPRPRPVLCPRP | 0.28 |
| RRIRYRPPRLPRPRPRPGNGPRP | -0.234 |
| RRIRKRPPRLPRPRPRPGMGPRP | 0.606 |
| RRIRGRPPRLPRPRPRPGGYPRP | 0.505 |
| RRIRRRPPRLPRPRPRPWPYPRP | 0.131 |
| RRIRLRPPRLPRPRPRPDQKPRP | 0.0416 |
| RRIRIRPPRLPRPRPRPMFRPRP | -0.0542 |
| RRIRLRPPRLPRPRPRPECNPRP | -0.0178 |
| RRIRIRPPRLPRPRPRPWVTPRP | -0.0476 |
| RRIRARPPRLPRPRPRPDMVPRP | 0.308 |
| RRIRRRPPRLPRPRPRPKESPRP | 0.023 |
| RRIRWRPPRLPRPRPRPGHIPRP | -0.0732 |
| RRIRGRPPRLPRPRPRPRQWPRP | 0.585 |
| RRIRGRPPRLPRPRPRPHSMPRP | 0.0488 |
| RRIRYRPPRLPRPRPRPRRAPRP | 0.364 |
| RRIRKRPPRLPRPRPRPAVDPRP | -0.0502 |

| Sequence | shrunken log2 fold change |
| --- | --- |
| RRIRIRPPRLPRPRPRPIVNPRP | -0.67 |
| RRIRSRPPRLPRPRPRPWKIPRP | -0.0842 |
| RRIRPRPPRLPRPRPRPLRRPRP | 0.805 |
| RRIRWRPPRLPRPRPRPVTTPRP | -0.0727 |
| RRIRRRPPRLPRPRPRPGWWPRP | 0.478 |
| RRIRQRPPRLPRPRPRPAPAPRP | 0.707 |
| RRIRYRPPRLPRPRPRPAAAPRP | 0.455 |
| RRIRDRPPRLPRPRPRPCQAPRP | -0.0133 |
| RRIRERPPRLPRPRPRPMTYPRP | -0.121 |
| RRIRDRPPRLPRPRPRPMRIPRP | -0.0494 |
| RRIRTRPPRLPRPRPRPRWTPRP | -0.0339 |
| RRIRERPPRLPRPRPRPGHKPRP | -0.324 |
| RRIRFRPPRLPRPRPRPVKFPRP | -0.0322 |
| RRIRYRPPRLPRPRPRPDSYPRP | -0.0836 |
| RRIRLRPPRLPRPRPRPSYSPRP | -0.589 |
| RRIRTRPPRLPRPRPRPDSTPRP | -0.232 |
| RRIRQRPPRLPRPRPRPDFEPRP | 0.0209 |
| RRIRNRPPRLPRPRPRPDRNPRP | -0.0291 |
| RRIRTRPPRLPRPRPRPNKVPRP | -0.326 |
| RRIRKRPPRLPRPRPRPSARPRP | 0.468 |
| RRIRPRPPRLPRPRPRPIGIPRP | 0.208 |
| RRIRCRPPRLPRPRPRPISWPRP | -0.105 |
| RRIRGRPPRLPRPRPRPDQMPRP | 0.633 |
| RRIRSRPPRLPRPRPRPDIVPRP | 0.252 |
| RRIRRRPPRLPRPRPRPLTTPRP | 0.311 |

| Sequence | shrunken log2 fold change |
| --- | --- |
| RRIRQRPPRLPRPRPRPTTSPRP | 0.1 |
| RRIRRRPPRLPRPRPRPRFPPRP | 0.676 |
| RRIRQRPPRLPRPRPRPEELPRP | -0.0362 |
| RRIRVRPPRLPRPRPRPSQQPRP | -0.116 |
| RRIRNRPPRLPRPRPRPLIQPRP | -0.327 |
| RRIRQRPPRLPRPRPRPSMWPRP | 0.0422 |
| RRIRMRPPRLPRPRPRPDYQPRP | -0.304 |
| RRIRYRPPRLPRPRPRPVFCPRP | -0.419 |
| RRIRYRPPRLPRPRPRPKRYPRP | -0.0281 |
| RRIRQRPPRLPRPRPRPTWMPRP | -0.262 |
| RRIRDRPPRLPRPRPRPNTRPRP | -0.238 |
| RRIRVRPPRLPRPRPRPGHLPRP | -0.185 |
| RRIRRRPPRLPRPRPRPMSTPRP | 0.231 |
| RRIRDRPPRLPRPRPRPTSVPRP | -0.0218 |
| RRIRLRPPRLPRPRPRPGGLPRP | 0.097 |
| RRIRRRPPRLPRPRPRPMSEPRP | 0.0166 |
| RRIRPRPPRLPRPRPRPFTVPRP | 0.0237 |
| RRIRLRPPRLPRPRPRPCVYPRP | -0.352 |
| RRIRIRPPRLPRPRPRPCCNPRP | -0.0118 |
| RRIRHRPPRLPRPRPRPNGKPRP | -0.335 |
| RRIRMRPPRLPRPRPRPFNLPRP | -0.16 |
| RRIRQRPPRLPRPRPRPSAMPRP | 0.218 |
| RRIRPRPPRLPRPRPRPGGKPRP | 0.12 |
| RRIRIRPPRLPRPRPRPCMEPRP | -0.799 |
| RRIRYRPPRLPRPRPRPLFVPRP | -0.507 |
